This is an account of results in paper PMC2894445.

The target in assay [1] is Nup205 (Xenopus laevis (endogenous in Xenopus egg cytosol)). In words: co-IP.
Assay [2] addresses Nup188 (Xenopus laevis (endogenous in Xenopus egg cytosol)). The assay is described as follows: co-IP.

B1: Nup93 (natural protein)
chain: MDGEGFGELLQQAEQLAAETEGVTELPHVERNLQEIQQAGERLRSKTMTRTSQESANVKASVLLGSRGLDISHISQRLESLSAATTFEPLEPVKDTDIQGFLKNEKDNALLSAIEESRKRTFVMAEEYHRESMLVEWEQVKQRVLHTLLASGEDALDFTQESETSYISESGAPGRSSLDNVEMAYARQMYMYNEKVVSGHLQPSLVDLCTEAAERLDDKNVSDLWVMVKQMTDVPLIPASDTLKSRCSGQMQMAFVRQALNYLEQSYKNYTLISVFANLQQAQLGGVPGTYNLVRSFLNIRLPTPIPGLQDGEIEGYPVWALIYYCMRCGDLMAAQQVVNRAQHQLGDFKNCFQEYIHNKDRRLSPTTENKLRLHYRRAVRASTDPYKRAVYCIIGRCDVSDNHSEVADKTEDYLWLKLSQVCFEDEANSSPQDRLTLPQFQKQLFEDYGESHFAVNQQPYLYFQVLFLTAQFEAAIAFLFRLERTRCHAVHVALALFELKLLLKSTGQSAQLLSQEPGEPQGVRRLNFIRLLMLYTRKFEPTDPREALQYFYFLRNEKDNQGESMFLRCVSELVIESREFDMLLGKLEKDGSRKPGAIDKFTRDTKTIINKVASVAENKGLFEEAAKLYDLAKNPDKVLELTNKLLSPVVSQISAPQSNRERLKNMALAIAERYKSQGVSAEKSINSTFYLLLDLITFFDEYHAGHIDLSFDVIERLKLVPLSQDSVEERVAAFRNFSDEIRHNLSEILLATMNILFTQYKRLKGSGPTTLGRPQRVQEDKDSVLRSQARALITFAGMIPYRMSGDTNARLVQMEVLMN
In the case of B1, the percent of Nup93 co-immunoprecipitated in assay [1] and in assay [2] was 45% in each case.
